Assay results published in the supplement of paper PMC7877785.
± gives the uncertainty stated by the source.

Test: self-splicing fitness, log relative to wild type (ln ratio); higher = more splicing; Tetrahymena group I intron in knt gene, E. coli kanamycin selection, DiMSum; sequences stand for … in CUCUCU…GGAGGGAAAAGUUAUCAGGCAUGCACCUGGUAGCUAGUCUUUAAACCAAUAGAUUGCAUCGGUUUAAAAGGCAAGACCGUCAAAUUGCGGGAAAGGGGUCAACAGCCGUUCAGUACCAAGUCUCAGGGGAAACUUUGAGAUGGCCUUGCAAAGGGUAUGGUAAUAAGCUGACGGACAUGGUCCUAACCACGCAGCCAAGUCCUAAGUCAACAGAUCUUCUGUUGAUAUGGAUGCAGUUCACAGACUAAAUGUCGGUCGGGGAAGAUGUAUUCUUCUCAUAAGAUAUAGUCGGACCUCUCCUUAAUGGGAGCUAGCGGAUGAAGUGAUGCAACACUGGAGCCGCUGGGAACUAAUUUGUAUGCGAAAGUAUAUUGAUUAGUUUUGGAGUACUCGUGGUCG
Procedure, shortened: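 Library with all eight P1ex-region intron nucleotides randomised, intron inside the knt kanamycin-resistance gene on pET-22b(+), in E. coli BL21(DE3). Cells grew overnight at 37°C or 30°C on LB agar with or without 25 μg/mL kanamycin (plus 100 μg/mL carbenicillin, 50 μM IPTG, 0.2% rhamnose), in six replicate transformations. Pooled colonies were amplicon-sequenced on Illumina HiSeq 2500. DiMSum fitness is the error-weighted combination of wild-type-normalised replicate fold changes, kanamycin versus none.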

## GUAGAGCAAUAUUACGCCCC
30 °C
  self-splicing fitness (ln): -1.39 ± 0.19
37 °C
  self-splicing fitness (ln): -0.63 ± 0.28

## GGCUAGCAAUAUUACGCGUU
30 °C
  self-splicing fitness (ln): -0.656 ± 0.066
37 °C
  self-splicing fitness (ln): -0.29 ± 0.08

## UCGCAGCAAUAUUACGGCUA
30 °C
  self-splicing fitness (ln): 0.198 ± 0.091
37 °C
  self-splicing fitness (ln): 0.317 ± 0.098

## GAUUAGCAAUAUUACGAGUU
30 °C
  self-splicing fitness (ln): -2.53 ± 0.14
37 °C
  self-splicing fitness (ln): -0.583 ± 0.11

## UCAGAGCAAUAUUACGGUGU
30 °C
  self-splicing fitness (ln): -4.01 ± 0.3
37 °C
  self-splicing fitness (ln): -2.25 ± 0.18

## UGUAAGCAAUAUUACGGCGU
30 °C
  self-splicing fitness (ln): -0.483 ± 0.1
37 °C
  self-splicing fitness (ln): -0.397 ± 0.12

## CGUAAGCAAUAUUACGCAGG
30 °C
  self-splicing fitness (ln): -2.25 ± 0.094
37 °C
  self-splicing fitness (ln): -1.02 ± 0.11

## UUCUAGCAAUAUUACGGACA
30 °C
  self-splicing fitness (ln): -0.456 ± 0.097
37 °C
  self-splicing fitness (ln): 0.211 ± 0.12

## UUAUAGCAAUAUUACGACAA
30 °C
  self-splicing fitness (ln): -0.403 ± 0.12
37 °C
  self-splicing fitness (ln): -0.279 ± 0.11

## AUGUAGCAAUAUUACGAAGG
30 °C
  self-splicing fitness (ln): -3.73 ± 0.34
37 °C
  self-splicing fitness (ln): -2.61 ± 0.3

## ACGUAGCAAUAUUACGCGUG
30 °C
  self-splicing fitness (ln): -1.73 ± 0.094
37 °C
  self-splicing fitness (ln): -0.962 ± 0.11

## GCCGAGCAAUAUUACGCACC
30 °C
  self-splicing fitness (ln): -1.96 ± 0.23
37 °C
  self-splicing fitness (ln): -0.483 ± 0.21

## ACUUAGCAAUAUUACGGUAA
30 °C
  self-splicing fitness (ln): -2.66 ± 0.15
37 °C
  self-splicing fitness (ln): -1.42 ± 0.14

## UAACAGCAAUAUUACGGGGA
30 °C
  self-splicing fitness (ln): -2.36 ± 0.15
37 °C
  self-splicing fitness (ln): -2.1 ± 0.097

## UAAUAGCAAUAUUACGCAAA
30 °C
  self-splicing fitness (ln): -2.03 ± 0.18
37 °C
  self-splicing fitness (ln): -1.27 ± 0.15

## AAGAAGCAAUAUUACGAUUA
30 °C
  self-splicing fitness (ln): -0.809 ± 0.11
37 °C
  self-splicing fitness (ln): 0.095 ± 0.11

## CCAAAGCAAUAUUACGGCAA
30 °C
  self-splicing fitness (ln): -3.15 ± 0.27
37 °C
  self-splicing fitness (ln): -2.73 ± 0.25

## GAAUAGCAAUAUUACGUGGU
30 °C
  self-splicing fitness (ln): -3.01 ± 0.15
37 °C
  self-splicing fitness (ln): -2.74 ± 0.24

## CGGGAGCAAUAUUACGGCAC
30 °C
  self-splicing fitness (ln): -3.74 ± 0.28
37 °C
  self-splicing fitness (ln): -1.62 ± 0.23

## UACGAGCAAUAUUACGCGUC
30 °C
  self-splicing fitness (ln): -1.91 ± 0.13
37 °C
  self-splicing fitness (ln): -2.3 ± 0.19

## AACCAGCAAUAUUACGAUUG
30 °C
  self-splicing fitness (ln): -3.19 ± 0.15
37 °C
  self-splicing fitness (ln): -1.48 ± 0.11

## GGGAAGCAAUAUUACGACGU
30 °C
  self-splicing fitness (ln): -0.169 ± 0.15
37 °C
  self-splicing fitness (ln): 0.767 ± 0.17

## GCGUAGCAAUAUUACGUAAG
30 °C
  self-splicing fitness (ln): -3.03 ± 0.23
37 °C
  self-splicing fitness (ln): -2.66 ± 0.25

## ACUGAGCAAUAUUACGCUCC
30 °C
  self-splicing fitness (ln): -2.62 ± 0.45
37 °C
  self-splicing fitness (ln): -1.18 ± 0.27

## AAGCAGCAAUAUUACGACGC
30 °C
  self-splicing fitness (ln): -0.811 ± 0.092
37 °C
  self-splicing fitness (ln): -0.525 ± 0.13

## UUAUAGCAAUAUUACGGCGC
30 °C
  self-splicing fitness (ln): -0.766 ± 0.18
37 °C
  self-splicing fitness (ln): -0.308 ± 0.17

## UCACAGCAAUAUUACGGGCG
30 °C
  self-splicing fitness (ln): -0.948 ± 0.094
37 °C
  self-splicing fitness (ln): -1.07 ± 0.093

## AGAUAGCAAUAUUACGCUAU
30 °C
  self-splicing fitness (ln): -3.58 ± 0.4
37 °C
  self-splicing fitness (ln): -3.47 ± 0.24

## AAGUAGCAAUAUUACGAGCG
30 °C
  self-splicing fitness (ln): -0.709 ± 0.14
37 °C
  self-splicing fitness (ln): -1.11 ± 0.19

## UCAGAGCAAUAUUACGGAUG
30 °C
  self-splicing fitness (ln): -3.87 ± 0.38
37 °C
  self-splicing fitness (ln): -2.06 ± 0.35

## ACUGAGCAAUAUUACGAGAG
30 °C
  self-splicing fitness (ln): -3.31 ± 0.18
37 °C
  self-splicing fitness (ln): -3.34 ± 0.32

## AUCGAGCAAUAUUACGAGGA
30 °C
  self-splicing fitness (ln): -1.16 ± 0.4
37 °C
  self-splicing fitness (ln): -2.07 ± 0.31

## GAUGAGCAAUAUUACGCUGA
30 °C
  self-splicing fitness (ln): -3.11 ± 0.44
37 °C
  self-splicing fitness (ln): -2.46 ± 0.38

## GGUAAGCAAUAUUACGCCGG
30 °C
  self-splicing fitness (ln): -3.09 ± 0.47
37 °C
  self-splicing fitness (ln): -1.93 ± 0.47

## UGUUAGCAAUAUUACGAAUG
30 °C
  self-splicing fitness (ln): -1.1 ± 0.097
37 °C
  self-splicing fitness (ln): -0.239 ± 0.13

## ACGCAGCAAUAUUACGGCGU
30 °C
  self-splicing fitness (ln): -3.68 ± 0.16
37 °C
  self-splicing fitness (ln): -2.23 ± 0.14

## GCAAAGCAAUAUUACGCGUA
30 °C
  self-splicing fitness (ln): -0.985 ± 0.075
37 °C
  self-splicing fitness (ln): -0.362 ± 0.071
